The values that follow come from the domain aggregation screens of Martell et al. (2025).

This series in a line: soluble fraction after stress (log2 fold change); higher = more stays soluble; pooled small domains, quantitative proteomics. The settings on record: stress: 75 degC.
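Also: 20 min heating vs room temperature control held 20 min.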

Consider “HMTLTLEQAAAIKNSEGEQYGKIESERLAAMSVQIDKAIKSNGHDPNKKADLERKLDAIGIILNARAAG”, for which the “soluble fraction (log2)” value turned out to be 0.222.
In the case of “HMTLVKRSAMVTAWSEFAGGRVNSKLIALQNGKAGDWIELENPQSGRKLRGRVQSDGSVRLGS” it was -1.07; in that of “HMTLYITDQMRKILDYVATNQEIDEKAVMDLLSIQRTRAYLIAKKMTDIGLLQVQGRGKTKTYRLAARS”, -2.08; in that of “HMTLYQIGDKVVHPMHGAGVIDSVVQRKVSGQVQEFYLLKLSVGNMVVMVPTDNTGEIGMRP”, -2.52.
In the case of “HMTMEQAEFLSRQFNLLSQRLNDPSIEWQDIADLRSEYTGEDEHRDTIRKGAKLFYEYLEAGWIKN” it was -0.76; in that of “HMTMKNPNGYGSVINLGKGRRRPWAARVTTGLVYDEKKDKLIQRYKYIGYADTRKEAHQILAEYNAGLPI”, -1.76.
In the case of “HMTMMTFGEKLQNARKGAGLSQEQLAEKLSVSRSAVAKWENDNGMPDIDNLKAIAQLLDVSIDYLLEN” it was 0.812; in that of “HMTMNLIEIGHVVGARRAELGLTQAQLAHLSGLSRQTVVGLEKGTLSDLGVNRVGQVMAVLGLDS”, -0.555.
Take “HMTMPDFGYMRVSYAEARRQLQAIGISVSTIEKVEDPSHTSATGDMVISQYPAAGSKIEGTVTLYVSVAS”: the “soluble fraction (log2)” value was -3.65.
As to “HMTMSFSELLRGLRKSRGMSQAELATAVGLSQAQVSQIETGKLLPSPELIEKLAALYGIALGSA”, the “soluble fraction (log2)” value worked out at 0.279.
In the case of “HMTMTKELGQRIRAERTARKMTQEELAERADLHPTYIGQVERGEKSLTIASLEKIVEGLGISFSDLFEN” it was 0.244; in that of “HMTMVKYRYLTDGELKEFEEEFKHFLIANGLHSEEWERLNNEDSNKAIEVVALFSNLILDKV”, -1.81.
As for “HMTMVLPDAARDKLKAIGLSIEHVEPSPVKDIFTVISREGVSYVSKDGDYIFTGSLFHVKGKDVVNTTEQA”, the figure is 0.0464; as for “HMTNEAFITPSVLEWAIKRAGVSAESIHKKAEQWVSGKARPTFKQAVDIAKTLQIPFGYLWLKEPPKEQ”, -0.949.
In the case of “HMTNELVNVNKLLDVMEPSIPLTALEIMTRLGIKSKETLRNSYLNPAIKLGMINLTSPLKPTSKNQMYYK” it was -1.02; in that of “HMTNKSKQRRNEILRASQELFNKKGFHDTSINDIMRRVGAAKGVFYYYFETKDQILDTLIEQHIA”, -0.978.
For the sequence “HMTNLTPKQQQIYQFIRASTQANGYPPTLREIGQQVGVRSPSTVKYHLDNLRTLGLLHWDGGKTRSITLP”, the “soluble fraction (log2)” value was -0.77.
As for “HMTNNFIVTWRNYNEEVLEIDVNVKKGSMPKYNGKTPEREGYQFVGWDPEITEVTKDITYVAQFM”, the figure is -1.92; as for “HMTNQKEITYSQFRQELDQGSIKSVSLQGSRIRGTYVDGGISFRTLAPNDADLIPSLMKHKVDIQVLPED”, 0.292.
In the case of “HMTNSTGWSKSGGTQVTIREGETIYNLSRRYGVPAKSIMEANGIADATAVRAGQRISIPTYSY” it was -0.0378; in that of “HMTNVDELIGKEAVVVKEIRPYTTGEVKLDGKVWRAMSESKQVYKVDEIVTVLRIEGVTMII”, -2.46; in that of “HMTNVETLVRMRLRSIRTTLGYSLDEIAERSNLSASTVSRIETGKRALSIDVLVPLAAALQVSVDDLLRAE”, -2.92.
As for “HMTNYREILRLRSLGLNHSRIAESMGISRPTVIAALQRAQTQELNWQAAESLSDIDLAQRLNP”, the figure is -0.847.
With “HMTNYYTVTFKEGDTVLKEVSVHSGDGVPYAVAPKRDDIVGWSYNGNTYTTDLNTLKIKKEVTFTAVT”, the “soluble fraction (log2)” value stood at 0.235.
As for “HMTPAIEKTAVIVFINGKKYYVHTVKSGETLYSIAKAYKVDEKVIKEHNPNVADGLRIDQTVKIPVPEQVK”, the figure is -0.549; as for “HMTPAPHESLTDREMEVLKLLAQGLSNQEIADKLFIGVKTVKYHITNIFSKLGVEDRTQAAIYAHKQGLA”, -0.475.
On to “HMTPDDSYIAGYAAGILKHQFLIDAPELIVRNGTITIPADKVSAGDRAKVVQILSGIPGVTRVEVG”, for which the “soluble fraction (log2)” value was determined as 0.224.
In the case of “HMTPDVHRGDTITVSLRAGAIRVRVPAKALEEGAAGGEIRVVNLTGGREYRVRVTGPGTAEAIL” it was -0.966; in that of “HMTPEGAYTVSEIVKVINSFADEYKVPFTMHVSGYKYEEIAQQLGLPIGTVKSRIFFARKRLQELLN”, -2.45; in that of “HMTPEPVTMYITSLTEFRSEPNTEAGIIKLLDAYEEVEMIESRGEWSKISYGDQIGYILSEFLTAENRT”, -0.85.
Regarding “HMTPILTAQQVVAALQAAGYRNVHDLEFEHGRWEADAVNAAGQRVELHINPYTGAIERERLD”, the “soluble fraction (log2)” value came out at 0.584.
In the case of “HMTPKTSVPKPGQTVVVRKGDTIYALARIHDITPADLIAWNRLDNPSQIYPGQVIRLYPQGA”, the “soluble fraction (log2)” value is -0.563.
In the case of “HMTPKVDLTVAEDGSASAVIAGLRVEIDAAGKVTAVAPADGTTDLSSVAPEAVKEAMDNALAAYTASKG” it was 0.12.
Turning to “HMTPLFNQGEVLKGFVLQTGTNNRVLLQIGTAKVLADAQTPLKAGEQLTLRVEATGPRTVLQILG”, the “soluble fraction (log2)” value was -0.461.
In the case of “HMTPLILTAQEGGERLDAFVASQVEDLTRSAAQRLLEQGAVTSGGKPLKKNAKTTPGMVVEVLLPDPQ” it was -0.113.
As for “HMTPPPTNSREWMEWGISHGLDANLDRSGQVVFYTDDRVVADAAELSGADLERDNMGQFVIYTGAYDKG”, the figure is 0.0155.
With “HMTPQEQWNNAYLLAKDYYDANGNLDIDEKYKTKDGFELGSWLTTQRNVYKRGKLSPEKTKKLEEIGISF”, the “soluble fraction (log2)” value worked out at 0.0776.
In the case of “HMTPQGALDYSRNAKYLRDQVTAINYLKQARLSLNTTDANYRQTLEQINQAIAKHNQALQQAGVQSQQLAT” it was -0.00591.
In the case of “HMTPTPQQNNILVGQTGTTLTRLAPMGKVRVGEVTAEAKTIDGYINPRQSVEVIGFENTVVIVRAV” it was -0.748; in that of “HMTPVIINESGGDQDTRIEGLNDNNLLYVDASTDRVGVGVATPTQKLDVNGDVAISGGSLYLSQ”, 0.183.
As for “HMTPVKAPLPGVVTKINVSVGQQVKKGENVLVLEAMKMENNIAAEADGTVSGIAVKAGDSVLEGAVLLTI”, the figure is 0.0213.
For “HMTPVTYELTVQSGAGQRIDKYLSEQLADLTRSYLQKLLKDGGVTVNGKTVKSNYKLSENDQIFLEVPDA”, the “soluble fraction (log2)” value turned out to be 0.0544.
As for “HMTPVYLNARQKQILAFLKREEPAKVGDIAHALKTISINTLKKDLLYLRQKNLIESHGVLKGTIYTVK”, the figure is -1.6; as for “HMTQEFIVPKVTGYTVEDAMNLSGVKDVFEITVDSTEKSDQPAGIILFQDPKDGSSRKSDLVIHVVVSAGS”, -0.363.
In the case of “HMTQEQKQQISDQLRAYVEQKGSGNKAAASMNGVSSATISKVLAGKWETISEDMWRSIAAQTGH” it was 0.325.
As for “HMTQFSLTTEEINVLKKSYSEFTDSDKELFNKILEKYNKFKNESSNDIAFEAKILEKLQEIENFYE”, the figure is -0.00344; as for “HMTQMSVLFSELEAKDAATIADKLRERNIPYELSNNGSTILIPQEVLHDTRLSLASEGLPES”, 0.0765.
With “HMTQPAEINRLVEQMGSSDYKSRQEAYERLHQMGPGILDLIYPYRNHADPEIQTRVRELILSYRW”, the “soluble fraction (log2)” value is -0.0738.
As for “HMTQQNRDELYRRMIDAGWDQLVRNGIRSLRVEQVAAAVGIAKGTFYHFFDSKDDFIYAMLMENRQ”, the figure is -3.41; as for “HMTQSPLHWSHRPIDLSELLTYLDRDGAFVYASGHKAPFTEVVRGFEHLLNIRLGDPRDVKRSVLQR”, -0.109.
In the case of “HMTQTGEVIRWDAERGFGFIATADGRRHVFFHVRDFRGGAAPGVGLRVGFEEIQVGGKGPRAMDVRPL” it was -1.28; in that of “HMTRDGMTKEAFDSLLEDIMNILLDNGLKATTMGSIAKSLKMSKRTLYEIFSSKSQMVEEAIIASHTKMM”, 0.214; in that of “HMTREAILDTAEELLQRRGYNAFSYHHIAVQLGIRNAAIHYHFPAKEDLGIELVSRFRIRLAE”, -0.28.
Regarding “HMTRLSSREAQVISLVRDGMTNQQIAERLELSPLTIKNHVQNILRKLDVSNRAQAVAKAVKARLI”, the “soluble fraction (log2)” value is -0.774.
As for “HMTRRGPLTEGDRVQVRDPKGRFHQVILVRGGRFQSNRGGFNHDDVIGRPDGQVIITDEGRQFQIL”, the figure is 0.493; as for “HMTRYEQLAAQIRQQIEDNIWQSGDRLPSLRDTVKQSGLSLMTVLQSYQLLESQGWITARPQSGYYVAHR”, 0.284.
On to “HMTSGTLTLTQDTPVYTEPNKDGGVAYVQPQGDIQWDKYIFANGDNWYSFVQKNRDQEVRFYIAYSDVG”, for which the “soluble fraction (log2)” value is -0.561.
For the sequence “HMTSHSFVITEEVGQRLDRFISDQLDTVSRTMIQKHIRSGAVVVNGKQVKSNYLLVLNDRINIALK”, the “soluble fraction (log2)” value was -2.75.
Consider “HMTSISMDEKVVLGWHQVTTGAANSGMDKVVSNTSGLNVISPTWFKLSDNKGNYISIASKDYVDAAHKKGL”, for which the “soluble fraction (log2)” value was -0.108.
As for “HMTSKTLSADGGENTRLDKFLSNHLPEISRTKIQKMINDGLVYVNQNYAKASLVLDGTELISYTIPD”, the “soluble fraction (log2)” value was -0.0211.
In the case of “HMTSLTDDELSVVMLVREREISFDEITSETGFDAARLNSVLTMLKIKGIIDETTGKHYRISGGA” it was -1.01; in that of “HMTSLVRTSNLDGFEPLARSIGVDPVMELMRFGIPPDALIRENMFISFIGFIRLLEHTALAG”, 0.364.
As for “HMTSMYYLNKAVKEGNAKAIRQLLSAGININVRKRETSTPLDFAIKYKQTEIADLLRKHGGKTAEELKAEE”, the figure is -0.668; as for “HMTSNEKARNAASAERRADIVAAARELYEEQGLSKTSVQDITNRMGVARSLFYHYFPDKEAVTSAVLDDYV”, 0.0232.
In the case of “HMTSPELIELGERIRKRRQEMNLSQEALAEKAGISINTVSRVEGGQTAMSIEIFRKMIEILETDANGL” it was -0.586; in that of “HMTSRIHDYWTSPGQPGYAKIGWGTAGDFRRAKALIGEKIAANSPEDMRYLNQIIAQWHFDALGYWPGDH”, -3; in that of “HMTSRLLTPRQRYVFDTAMKEGFYDVPRRITLTELASVLDVAKSTLSAQLHRIESTVHHAYADDIRRRS”, -2.55.
Regarding “HMTSSQLNIEELERRMMMHLEQNGFITRSIYTNLTGRLKWKATEDLKIFVEKGLIRKMGRGNQMYYVKVE”, the “soluble fraction (log2)” value is -1.74.
As for “HMTSSQRDSILEFLKTRKDHPTADVVYMNVRKSFPNISLGTVYRNLTLLSDIGQIAKIRVGDGVDHFDADT”, the figure is -0.505.
As for “HMTSSSGTITADWLNVRSGAGTNFSRLGSIAGGTRLTVISVHGEWYKITASFEGEIRTGYVHSQYVQMDGE”, the “soluble fraction (log2)” value is -3.87.
